From article PMC12046560

Target: Neorhodopsin (NeoR) rhodopsin module from Rhizoclosmatium globosum, residues 1-279 (Rhizoclosmatium globosum)
Test: cryo-EM structure; single-particle cryo-EM of purified NeoR in LMNG/CHS, 50 mM Hepes pH 7.4, 100 mM NaCl, after two SEC steps (monodisperse, single oligomeric state); 4.80 Å map refined under C1; two AlphaFold2 monomers fitted into the map

- stoichiometry N: 2
Substance: Neorhodopsin (NeoR) rhodopsin module from Rhizoclosmatium globosum, residues 1-279 (domain or fragment)
